Test system: Escherichia coli TOP10
Test: shrunken log2 fold change of peptide-encoding DNA abundance (4.5 h post-induction vs induction); higher = less antimicrobial activity (less host growth inhibition)
Settings: time post-induction: 4.5 h; library: site-saturation at positions 5, 18, 19, 20
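Further: peptides expressed intracellularly from a pBAD plasmid library in pooled LB shake-flask culture, induced with 0.3% L-arabinose, DNA abundance read by NGS, three biological replicates, DESeq2 with apeglm shrinkage.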

## RRIRERPPRLPRPRPRPNRRPRP
  shrunken log2 fold change: -0.0103

## RRIRPRPPRLPRPRPRPCMWPRP
  shrunken log2 fold change: 0.0459

## RRIRPRPPRLPRPRPRPQNCPRP
  shrunken log2 fold change: -0.621

## RRIRMRPPRLPRPRPRPSLVPRP
  shrunken log2 fold change: -0.252

## RRIRHRPPRLPRPRPRPHSNPRP
  shrunken log2 fold change: -0.167

## RRIRRRPPRLPRPRPRPYTDPRP
  shrunken log2 fold change: -0.0165

## RRIRTRPPRLPRPRPRPSRLPRP
  shrunken log2 fold change: 0.0405

## RRIRDRPPRLPRPRPRPPTQPRP
  shrunken log2 fold change: 0.285

## RRIRSRPPRLPRPRPRPRCGPRP
  shrunken log2 fold change: 0.34

## RRIRPRPPRLPRPRPRPIAKPRP
  shrunken log2 fold change: 0.0454

## RRIRFRPPRLPRPRPRPNGFPRP
  shrunken log2 fold change: 0.000958

## RRIRTRPPRLPRPRPRPHGYPRP
  shrunken log2 fold change: -0.267

## RRIRARPPRLPRPRPRPIDTPRP
  shrunken log2 fold change: 0.0213

## RRIRLRPPRLPRPRPRPRGQPRP
  shrunken log2 fold change: 0.533

## RRIRYRPPRLPRPRPRPMNEPRP
  shrunken log2 fold change: -0.103

## RRIRQRPPRLPRPRPRPVNDPRP
  shrunken log2 fold change: -0.0199

## RRIRDRPPRLPRPRPRPKPMPRP
  shrunken log2 fold change: 0.135

## RRIRQRPPRLPRPRPRPGTTPRP
  shrunken log2 fold change: 0.155

## RRIRFRPPRLPRPRPRPPHQPRP
  shrunken log2 fold change: 0.301

## RRIRFRPPRLPRPRPRPQELPRP
  shrunken log2 fold change: -0.0341

## RRIRTRPPRLPRPRPRPKEFPRP
  shrunken log2 fold change: -0.0177

## RRIRMRPPRLPRPRPRPDRAPRP
  shrunken log2 fold change: 0.861

## RRIRCRPPRLPRPRPRPMKAPRP
  shrunken log2 fold change: -0.173

## RRIRCRPPRLPRPRPRPTDCPRP
  shrunken log2 fold change: 0.0318

## RRIRDRPPRLPRPRPRPRICPRP
  shrunken log2 fold change: 0.00396

## RRIRHRPPRLPRPRPRPFFCPRP
  shrunken log2 fold change: -0.16

## RRIRWRPPRLPRPRPRPQGHPRP
  shrunken log2 fold change: 0.0837

## RRIRTRPPRLPRPRPRPNQEPRP
  shrunken log2 fold change: 0.0313

## RRIRWRPPRLPRPRPRPYLSPRP
  shrunken log2 fold change: -0.242

## RRIRSRPPRLPRPRPRPIMSPRP
  shrunken log2 fold change: -0.173

## RRIRNRPPRLPRPRPRPTWYPRP
  shrunken log2 fold change: 0.0037

## RRIRMRPPRLPRPRPRPGPRPRP
  shrunken log2 fold change: 1.46

## RRIRPRPPRLPRPRPRPYFKPRP
  shrunken log2 fold change: -0.796

## RRIRYRPPRLPRPRPRPSKWPRP
  shrunken log2 fold change: -0.155

## RRIRCRPPRLPRPRPRPMTAPRP
  shrunken log2 fold change: 0.0275

## RRIRMRPPRLPRPRPRPPGNPRP
  shrunken log2 fold change: 0.475

## RRIRLRPPRLPRPRPRPMWQPRP
  shrunken log2 fold change: 0.0197

## RRIRSRPPRLPRPRPRPQSPPRP
  shrunken log2 fold change: -0.0599

## RRIRARPPRLPRPRPRPGPQPRP
  shrunken log2 fold change: 0.367

## RRIRYRPPRLPRPRPRPPTMPRP
  shrunken log2 fold change: -0.352

## RRIRRRPPRLPRPRPRPTCQPRP
  shrunken log2 fold change: 0.775

## RRIRSRPPRLPRPRPRPVDKPRP
  shrunken log2 fold change: -0.175

## RRIRSRPPRLPRPRPRPDPYPRP
  shrunken log2 fold change: -0.312

## RRIRWRPPRLPRPRPRPWIQPRP
  shrunken log2 fold change: 0.0861

## RRIRHRPPRLPRPRPRPCGQPRP
  shrunken log2 fold change: 0.015

## RRIRTRPPRLPRPRPRPMGLPRP
  shrunken log2 fold change: 0.12

## RRIRGRPPRLPRPRPRPDVAPRP
  shrunken log2 fold change: 1.98

## RRIRLRPPRLPRPRPRPHIMPRP
  shrunken log2 fold change: -0.531

## RRIRHRPPRLPRPRPRPQRQPRP
  shrunken log2 fold change: 0.0621

## RRIRCRPPRLPRPRPRPQLGPRP
  shrunken log2 fold change: -0.00405

## RRIRGRPPRLPRPRPRPGNEPRP
  shrunken log2 fold change: 0.0696

## RRIRGRPPRLPRPRPRPLEWPRP
  shrunken log2 fold change: 1.03

## RRIRMRPPRLPRPRPRPGLKPRP
  shrunken log2 fold change: 0.363

## RRIRYRPPRLPRPRPRPSCRPRP
  shrunken log2 fold change: -0.6

## RRIRVRPPRLPRPRPRPFEVPRP
  shrunken log2 fold change: -0.164

## RRIRVRPPRLPRPRPRPRKEPRP
  shrunken log2 fold change: -0.0286

## RRIRARPPRLPRPRPRPEYPPRP
  shrunken log2 fold change: 0.0126

## RRIRTRPPRLPRPRPRPNQTPRP
  shrunken log2 fold change: -0.155

## RRIRRRPPRLPRPRPRPYWMPRP
  shrunken log2 fold change: -0.205

## RRIRARPPRLPRPRPRPDAVPRP
  shrunken log2 fold change: 0.683

## RRIRARPPRLPRPRPRPHATPRP
  shrunken log2 fold change: 1.01

## RRIRRRPPRLPRPRPRPTEVPRP
  shrunken log2 fold change: 0.238

## RRIRERPPRLPRPRPRPFPEPRP
  shrunken log2 fold change: -0.426

## RRIRARPPRLPRPRPRPNCHPRP
  shrunken log2 fold change: -0.0678

## RRIRARPPRLPRPRPRPWYVPRP
  shrunken log2 fold change: -0.0927

## RRIRERPPRLPRPRPRPEVEPRP
  shrunken log2 fold change: -0.0864

## RRIRNRPPRLPRPRPRPKDNPRP
  shrunken log2 fold change: -0.484

## RRIRCRPPRLPRPRPRPKQAPRP
  shrunken log2 fold change: -0.0334

## RRIRNRPPRLPRPRPRPWMRPRP
  shrunken log2 fold change: 0.311

## RRIRDRPPRLPRPRPRPPAGPRP
  shrunken log2 fold change: 0.418

## RRIRDRPPRLPRPRPRPNALPRP
  shrunken log2 fold change: -0.0157

## RRIRPRPPRLPRPRPRPNYCPRP
  shrunken log2 fold change: -0.239

## RRIRCRPPRLPRPRPRPCGAPRP
  shrunken log2 fold change: 0.285

## RRIRGRPPRLPRPRPRPCKPPRP
  shrunken log2 fold change: 0.108

## RRIRGRPPRLPRPRPRPCNMPRP
  shrunken log2 fold change: -0.0796

## RRIRYRPPRLPRPRPRPFDYPRP
  shrunken log2 fold change: -0.184

## RRIRERPPRLPRPRPRPVRLPRP
  shrunken log2 fold change: 0.0832

## RRIRYRPPRLPRPRPRPEITPRP
  shrunken log2 fold change: -0.295

## RRIRQRPPRLPRPRPRPGTWPRP
  shrunken log2 fold change: 0.0676

## RRIRWRPPRLPRPRPRPNCHPRP
  shrunken log2 fold change: 0.0398

## RRIRNRPPRLPRPRPRPVHRPRP
  shrunken log2 fold change: -0.0338

## RRIRPRPPRLPRPRPRPRNDPRP
  shrunken log2 fold change: -0.479

## RRIRSRPPRLPRPRPRPKSDPRP
  shrunken log2 fold change: -0.082

## RRIRHRPPRLPRPRPRPIHTPRP
  shrunken log2 fold change: 0.00096

## RRIRQRPPRLPRPRPRPCRWPRP
  shrunken log2 fold change: -0.0062

## RRIRIRPPRLPRPRPRPRHPPRP
  shrunken log2 fold change: -0.0642

## RRIRKRPPRLPRPRPRPYPVPRP
  shrunken log2 fold change: -0.801

## RRIRYRPPRLPRPRPRPHDWPRP
  shrunken log2 fold change: -0.0744

## RRIRTRPPRLPRPRPRPQGYPRP
  shrunken log2 fold change: -0.943

## RRIRERPPRLPRPRPRPVPWPRP
  shrunken log2 fold change: 0.0881

## RRIRTRPPRLPRPRPRPSQGPRP
  shrunken log2 fold change: 0.144

## RRIRWRPPRLPRPRPRPWLFPRP
  shrunken log2 fold change: 0.0264

## RRIRIRPPRLPRPRPRPLITPRP
  shrunken log2 fold change: -0.71

## RRIRDRPPRLPRPRPRPYCTPRP
  shrunken log2 fold change: -0.253

## RRIRWRPPRLPRPRPRPFPKPRP
  shrunken log2 fold change: 0.0146

## RRIRERPPRLPRPRPRPTFFPRP
  shrunken log2 fold change: 0.321

## RRIRLRPPRLPRPRPRPDQLPRP
  shrunken log2 fold change: -0.0435

## RRIRGRPPRLPRPRPRPETSPRP
  shrunken log2 fold change: 1.68

## RRIRQRPPRLPRPRPRPMDFPRP
  shrunken log2 fold change: 0.015

## RRIRGRPPRLPRPRPRPLCKPRP
  shrunken log2 fold change: 0.529

## RRIRIRPPRLPRPRPRPTWEPRP
  shrunken log2 fold change: -0.212

## RRIRYRPPRLPRPRPRPQFGPRP
  shrunken log2 fold change: 0.03

## RRIRWRPPRLPRPRPRPCFEPRP
  shrunken log2 fold change: -0.0254

## RRIRCRPPRLPRPRPRPNRWPRP
  shrunken log2 fold change: 0.0409

## RRIRRRPPRLPRPRPRPEGWPRP
  shrunken log2 fold change: 3.17

## RRIRSRPPRLPRPRPRPFIGPRP
  shrunken log2 fold change: -1.15

## RRIRWRPPRLPRPRPRPVVMPRP
  shrunken log2 fold change: -0.0601

## RRIRTRPPRLPRPRPRPFGLPRP
  shrunken log2 fold change: 0.0236

## RRIRNRPPRLPRPRPRPYPIPRP
  shrunken log2 fold change: -0.0592
